# In PMC3686320 (Biochemistry, 2013):
# Numbering of substitutions follows the chain as printed. Like-named read-outs stand apart in the source and are kept apart here.
# B1: Escherichia coli primosomal DnaT protein, wild type (natural protein, E. coli, UniProt P0A8J2 1-179, looked up)
# chain: MSSRVLTPDVVGIDALVHDHQTVLAKAEGGVVAVFANNAPAFYAVTPARLAELLALEEKLARPGSDVALDDQLYQEPQAAPVAVPMGKFAMYPDWQPDADFIRLAALWGVALREPVTTEELASFIAYWQAEGKVFHHVQWQQKLARSLQIGRASNGGLPKRDVNTVSEPDSQIPPGFRG
# B2: isolated N-terminal core domain of the DnaT protein (domain or fragment, E. coli, UniProt P0A8J2 1-161, looked up)
# chain: MSSRVLTPDVVGIDALVHDHQTVLAKAEGGVVAVFANNAPAFYAVTPARLAELLALEEKLARPGSDVALDDQLYQEPQAAPVAVPMGKFAMYPDWQPDADFIRLAALWGVALREPVTTEELASFIAYWQAEGKVFHHVQWQQKLARSLQIGRASNGGLPKR
# B3: fluorescein-labeled N-terminal core domain of the DnaT variant S3C (domain or fragment, E. coli, UniProt P0A8J2 1-161, looked up)
# chain: B2 chain with S3C
# modifications: fluorescein (fluorescein maleimide) on the cysteine that replaces serine 3
# What was measured:
# Experiment in all cases: AUC
# [1] = biological target: the molecule itself
# [2] = biological target: the molecule itself; remark: listed apart in the source
# [3] = biological target: the molecule itself; remark: listed apart in the source
protein,measurement,setting,value
B1,stoichiometry N,[1],3
B2,stoichiometry N,[2],2
B3,stoichiometry N,[3],2
